The text below walks through data of publication PMC11021448.

Assay [1] concerns the target 6xHis-CtpA(ΔN37, S302A), purified alone (Pseudomonas aeruginosa). Kind of assay: ITC; 250 μM LbcA in the syringe titrated into 9 μM CtpA hexamer (32 μM for CtpAΔC6 dimer) in the cell; 25 °C; 20 mM Tris pH 7.5, 5 mM MgCl2, 100 mM KCl; one-site fit.
The target in assay [2] is 6xHis-CtpA(ΔN37), wild type (Pseudomonas aeruginosa). The description is as above.
The target of assay [3] is 6xHis-CtpA(ΔN37, ΔC6) (Pseudomonas aeruginosa). The assay is described as above.
The target of assay [4] is CtpA as used in the gel filtration experiments (Pseudomonas aeruginosa). Kind of assay: SEC; separately purified CtpA (or CtpAΔC6) mixed with LbcA at molar ratios 6:1, 6:2, 6:3, 30 °C for 15 min in 20 mM Tris pH 7.5, 5 mM MgCl2, 100 mM KCl; Superdex 200 increase; peaks analysed by SDS-PAGE.
For assay [5], the target named is 6xHis-CtpA(ΔN37, S302A), purified alone (Pseudomonas aeruginosa). Briefly: negative staining EM; CtpA(S302A) 10 μg/ml on carbon grids prepared at room temperature, uranium formate stain, 2D classification.
For assay [6], the target named is 6xHis-CtpA(ΔN37, ΔC6) (Pseudomonas aeruginosa). Briefly: SEC; CtpA or CtpAΔC6 alone incubated at 30 °C for 15 min in 20 mM Tris pH 7.5, 5 mM MgCl2, 100 mM KCl; Superdex 200 increase.
For assay [7] the target is unchanged. Kind of assay: SEC; separately purified CtpA (or CtpAΔC6) mixed with LbcA at molar ratios 6:1, 6:2, 6:3, 30 °C for 15 min in 20 mM Tris pH 7.5, 5 mM MgCl2, 100 mM KCl; Superdex 200 increase; peaks analysed by SDS-PAGE.
Assay [8] shares this target. Kind of assay: cryo-EM 2D class averages of a cross-linked mixture; CtpAΔC6 mixed with LbcA at 6:4 molar ratio, 30 °C for 15 min in 20 mM HEPES pH 7.5, 5 mM MgCl2, 100 mM KCl, cross-linked with 1 mM BS(PEG)9 on ice overnight; 2D classification.
For assay [9], the target named is CtpA(ΔN37, S302A), co-expressed with LbcA(ΔN31), 6xHis tag removed (Pseudomonas aeruginosa). Kind of assay: cryo-EM structure; co-expressed CtpA(ΔN37, S302A)-LbcA(ΔN31) complex purified by HiTrap Ni, HiTrap Q and Superose 6 Increase (20 mM Tris pH 7.5, 5 mM MgCl2, 100 mM KCl, 1 mM DTT), 0.8 mg/ml; single particle analysis; molar ratio judged by band intensity in stained SDS-PAGE gels.

The target of assay [10] is CtpA as used in the gel filtration experiments (Pseudomonas aeruginosa). Briefly: SEC; CtpA or CtpAΔC6 alone incubated at 30 °C for 15 min in 20 mM Tris pH 7.5, 5 mM MgCl2, 100 mM KCl; Superdex 200 increase.
Assay [11] shares this target. The assay is described as above. The source holds these as a separate data set.
For assay [12] the target is unchanged. Kind of assay: not stated; CtpA alone on ice at 4 °C (Appendix Fig. S12a).

In the case of “LbcA(ΔN31) with C-terminal 6xHis tag, purified alone (natural protein)”, the Kd in assay [1] came out at 760 nM; in assay [2], 920 nM; in assay [3], 850 nM. In addition, in assay [1], the stoichiometry N (LbcA per CtpA dimer) is 1. Moreover, the stoichiometry N (CtpA:LbcA (molar ratio)) in assay [4] was 2.
The substance “6xHis-CtpA(ΔN37, S302A), purified alone (enzyme)” came in with a stoichiometry N in assay [5] of 2.
Regarding 6xHis-CtpA(ΔN37, ΔC6) (enzyme), the stoichiometry N in assay [6], in assay [7] and in assay [8] was 2 throughout.
“LbcA(ΔN31), co-expressed with CtpA(ΔN37, S302A) (natural protein)”: the stoichiometry N (CtpA:LbcA (molar ratio)) in assay [9] stood at 2.
For “CtpA(ΔN37, S302A), co-expressed with LbcA(ΔN31), 6xHis tag removed (enzyme)”, the stoichiometry N in [9] came out at 6.
For the substance “CtpA as used in the gel filtration experiments (printed only as CtpA) (enzyme)”, the stoichiometry N was determined as 2 in assay [10], 6 in assay [11], 6 in assay [12] and 6 in assay [4].
